Five proteins from PMC2671562, “Structural and Functional Analyses of PAS Domain Interactions of the Clock Proteins Drosophila PERIOD and Mouse PERIOD2” (PLoS Biology, 2009) can be followed below.

As a reminder, the Kd is the concentration at which binding is half-saturated.

The chains are these.
B1: dPER[232–599] M560D (domain or fragment)
chain: not shown
notes: also called dPER(M560D)
B2: Drosophila PERIOD fragment dPER[232–599], wild-type (domain or fragment)
chain: not shown
notes: GST fusion from pGEX-6P2, GST removed with PreScission protease
B3: mouse PERIOD2 fragment mPER2[170–473] (domain or fragment)
chain: GSSYSMEQVEGITSEYIVKNADMFAVAVSLVSGKILYISNQVASIFHCKKDAFSDAKFVEFLAPHDVSVFHSYTTPYKLPPWSVCSGLDSFTQECMEEKSFFCRVSVGKHHENEIRYQPFRMTPYLVKVQEQQGAESQLCCLLLAERVHSGYEAPRIPPEKRIFTTTHTPNCLFQAVDERAVPLLGYLPQDLIETPVLVQLHPSDRPLMLAIHKKILQAGGQPFDYSPIRFRTRNGEYITLDTSWSSFINPWSRKISFIIGRHKVRVGPLNEDVFAAPPCPEEKTPHPSVQELTEQIHRLLMQPVP
notes: two additional N-terminal residues (Gly168 and Ser169) seen in molecule 1 of the crystal, cloning artefacts; GST fusion from pGEX-6P2, GST removed with PreScission protease; also called crystallized mPER2 fragment
B4: dPER[232–599] W482E (domain or fragment)
chain: not shown
notes: also called dPER(W482E)
B5: mouse PERIOD2 fragment mPER2[128–473], wild-type (domain or fragment, UniProt O54943 128-473, looked up)
chain: GKASTLATLKYALRSVKQVKANEEYYQLLMSSESQPCSVDVPSYSMEQVEGITSEYIVKNADMFAVAVSLVSGKILYISNQVASIFHCKKDAFSDAKFVEFLAPHDVSVFHSYTTPYKLPPWSVCSGLDSFTQECMEEKSFFCRVSVGKHHENEIRYQPFRMTPYLVKVQEQQGAESQLCCLLLAERVHSGYEAPRIPPEKRIFTTTHTPNCLFQAVDERAVPLLGYLPQDLIETPVLVQLHPSDRPLMLAIHKKILQAGGQPFDYSPIRFRTRNGEYITLDTSWSSFINPWSRKISFIIGRHKVRVGPLNEDVFAAPPCPEEKTPHPSVQELTEQIHRLLMQPVP
notes: also called N-terminally extended PAS domain fragment

This series deals with the molecule itself. Put plainly: AUC; sedimentation equilibrium, interference optics, 10 °C, 25 mM HEPES pH 7.7, 100 mM NaCl, 2 mM DTE; four starting concentrations from stocks of 0.8–2 mg/ml; dimer to monomers, K D = 1/K A.
Take B1: the Kd was 7.14 µM.
B2 came in with a Kd of 0.2 µM.
As for B3, the Kd worked out at 1.34 µM.
Consider B4, for which the Kd amounted to 3.7 µM.
In turn, B5 displayed a Kd of 2.25 µM.
